According to patent US11911397B2, “Anordrin compositions and methods for treating diseases” (Zhejiang Jiachi Development Pharmaceuticals LTD, priority 2014, dated 2024):

Tested on: MDA-MB-231 cells
Experiment: MDA-MB-231 cell migration (matrixgel / transwell)
Type: cell-based
Details: 10 nM E2 or 10 ng/ml EGF alone, 20 hours
Description: As anordrin has been reported as an anti-angiogenic agent resulting in inhibition of cell migration and invasion (16), we studied its ability to modulate MDA-MB-231 cell migration using matrixgel. […] After 20 hours migrated cells were stained and quantified using a plate reader at 560 nm.
Transwell and flow cytometry assay: Cells were starved for 48 hours in phenol red free medium containing 5% charcoal-stripped FBS, and then changed into phenol red free medium for an additional 24 hours. Transwell was performed following the Chemicon kit instructions (CAT #ECM551). Briefly, cells were trypsinized, washed using 1×DPBS containing Ca2+ and Mg2+ (Sigma) and resuspensed in serum and phenol red free medium at a cell density of 0.5×10^6 cells/ml.

B1: EGF: EGF, binds to Her1; used at 10 ng/ml as stimulus (protein, UniProt P01133 23-1207, looked up)
Pro-epidermal growth factor: PQHWSCPEGTLAGNGNSTCVGPAPFLIFSHGNSIFRIDTEGTNYEQLVVDAGVSVIMDFHYNEKRIYWVDLERQLLQRVFLNGSRQERVCNIEKNVSGMAINWINEEVIWSNQQEGIITVTDMKGNNSHILLSALKYPANVAVDPVERFIFWSSEVAGSLYRADLDGVGVKALLETSEKITAVSLDVLDKRLFWIQYNREGSNSLICSCDYDGGSVHISKHPTQHNLFAMSLFGDRIFYSTWKMKTIWIANKHTGKDMVRINLHSSFVPLGELKVVHPLAQPKAEDDTWEPEQKLCKLRKGNCSSTVCGQDLQSHLCMCAEGYALSRDRKYCEDVNECAFWNHGCTLGCKNTPGSYYCTCPVGFVLLPDGKRCHQLVSCPRNVSECSHDCVLTSEGPLCFCPEGSVLERDGKTCSGCSSPDNGGCSQLCVPLSPVSWECDCFPGYDLQLDEKSCAASGPQPFLLFANSQDIRHMHFDGTDYGTLLSQQMGMVYALDHDPVENKIYFAHTALKWIERANMDGSQRERLIEEGVDVPEGLAVDWIGRRFYWTDRGKSLIGRSDLNGKRSKIITKENISQPRGIAVHPMAKRLFWTDTGINPRIESSSLQGLGRLVIASSDLIWPSGITIDFLTDKLYWCDAKQSVIEMANLDGSKRRRLTQNDVGHPFAVAVFEDYVWFSDWAMPSVMRVNKRTGKDRVRLQGSMLKPSSLVVVHPLAKPGADPCLYQNGGCEHICKKRLGTAWCSCREGFMKASDGKTCLALDGHQLLAGGEVDLKNQVTPLDILSKTRVSEDNITESQHMLVAEIMVSDQDDCAPVGCSMYARCISEGEDATCQCLKGFAGDGKLCSDIDECEMGVPVCPPASSKCINTEGGYVCRCSEGYQGDGIHCLDIDECQLGEHSCGENASCTNTEGGYTCMCAGRLSEPGLICPDSTPPPHLREDDHHYSVRNSDSECPLSHDGYCLHDGVCMYIEALDKYACNCVVGYIGERCQYRDLKWWELRHAGHGQQQKVIVVAVCVVVLVMLLLLSLWGAHYYRTQKLLSKNPKNPYEESSRDVRSRRPADTEDGMSSCPQPWFVVIKEHQDLKNGGQPVAGEDGQAADGSMQPTSWRQEPQLCGMGTEQGCWIPVSSDKGSCPQVMERSFHMPSYGTQTLEGGVEKPHSLLSANPLWQQRALDPPHQMELTQ
modifications: Pro-epidermal growth factor
notes: used at 10 ng/ml as stimulus
MDA-MB-231 cell migration: slightly enhanced
